# According to patent US20230019513A1:
# Target: murine Protein S (mouse) (UniProt Q08761)
# Assay: cell-based or functional assay
# UniProt Q08761, sequence (Q08761 42-675): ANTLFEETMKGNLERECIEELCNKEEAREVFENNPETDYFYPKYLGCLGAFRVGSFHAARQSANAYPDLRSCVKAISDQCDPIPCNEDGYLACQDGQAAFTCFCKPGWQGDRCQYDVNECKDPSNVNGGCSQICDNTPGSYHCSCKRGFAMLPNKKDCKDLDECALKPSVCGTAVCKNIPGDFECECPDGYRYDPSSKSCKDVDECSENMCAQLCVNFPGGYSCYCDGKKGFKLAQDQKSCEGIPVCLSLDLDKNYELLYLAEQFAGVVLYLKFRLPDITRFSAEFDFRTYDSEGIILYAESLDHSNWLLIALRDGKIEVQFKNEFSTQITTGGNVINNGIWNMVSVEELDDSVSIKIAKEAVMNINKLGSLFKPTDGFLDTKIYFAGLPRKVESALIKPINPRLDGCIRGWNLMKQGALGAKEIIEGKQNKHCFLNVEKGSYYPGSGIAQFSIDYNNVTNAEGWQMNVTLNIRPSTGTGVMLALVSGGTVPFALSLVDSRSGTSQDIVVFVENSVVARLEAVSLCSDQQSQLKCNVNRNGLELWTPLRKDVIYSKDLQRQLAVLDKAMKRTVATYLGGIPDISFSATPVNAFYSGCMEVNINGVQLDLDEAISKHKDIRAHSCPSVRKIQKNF
row,reduction of ETP in Ca2+ ionophore-activated PRP of WT mice at 8 nM APC,Substance
1,30%,mutated recombinant mouse APC (rmAPC L38D) (from UniProt P33587 42-460) (enzyme)
2,90%,wild type recombinant mouse APC (wt-rmAPC) (from UniProt P33587 42-460) (enzyme)
